The target in the test is human glucagon receptor (hGR) (human, UniProt P47871 26-477). The experiment in a line: cell-based or functional assay.

The values below come from patent publication US20160311883A1 (Eli Lilly, published 2016).

Square brackets hold non-standard residues; d marks the D form. Ends that are not written are not given here. Aib = CC(C)(N)C(=O)O

Chain of human glucagon receptor (hGR) (P47871 26-477): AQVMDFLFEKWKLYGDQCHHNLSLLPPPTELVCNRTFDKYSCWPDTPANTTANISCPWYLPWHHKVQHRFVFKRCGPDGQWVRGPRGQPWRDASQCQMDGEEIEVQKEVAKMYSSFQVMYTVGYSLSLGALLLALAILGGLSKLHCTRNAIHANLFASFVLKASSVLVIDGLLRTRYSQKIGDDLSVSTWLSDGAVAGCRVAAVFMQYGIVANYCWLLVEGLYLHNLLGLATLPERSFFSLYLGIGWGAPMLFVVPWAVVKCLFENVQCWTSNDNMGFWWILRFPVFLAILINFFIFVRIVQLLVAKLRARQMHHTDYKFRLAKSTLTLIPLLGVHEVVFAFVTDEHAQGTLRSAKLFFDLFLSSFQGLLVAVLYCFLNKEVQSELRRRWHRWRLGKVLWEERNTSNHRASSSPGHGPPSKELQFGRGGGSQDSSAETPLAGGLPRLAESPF

B1: compound of SEQ ID NO: 2 (peptide)
peptide: YSHGTFTSDVSKYLD[Aib]KKAAEFVAWLLEE-OH
modifications: N-terminus assumed
SMILES: CC(C)C[C@H](NC(=O)[C@H](Cc1c[nH]c2ccccc12)NC(=O)[C@H](C)NC(=O)[C@@H](NC(=O)[C@H](Cc1ccccc1)NC(=O)[C@H](CCC(=O)O)NC(=O)[C@H](C)NC(=O)[C@H](C)NC(=O)[C@H](CCCCN)NC(=O)[C@H](CCCCN)NC(=O)C(C)(C)NC(=O)[C@H](CC(=O)O)NC(=O)[C@H](CC(C)C)NC(=O)[C@H](Cc1ccc(O)cc1)NC(=O)[C@H](CCCCN)NC(=O)[C@H](CO)NC(=O)[C@@H](NC(=O)[C@H](CC(=O)O)NC(=O)[C@H](CO)NC(=O)[C@@H](NC(=O)[C@H](Cc1ccccc1)NC(=O)[C@@H](NC(=O)CNC(=O)[C@H](Cc1c[nH]cn1)NC(=O)[C@H](CO)NC(=O)[C@@H](N)Cc1ccc(O)cc1)[C@@H](C)O)[C@@H](C)O)C(C)C)C(C)C)C(=O)N[C@@H](CC(C)C)C(=O)N[C@@H](CCC(=O)O)C(=O)N[C@@H](CCC(=O)O)C(=O)O
Turning to B1, the “hGR stimulated cAMP functional assay, relative EC50” value was 0.0658 ηM.
